Test results from the supplement of paper PMC7877785.
± gives the uncertainty stated by the source.

Experiment: self-splicing fitness, log relative to wild type (ln ratio); higher = more splicing; Tetrahymena group I intron in knt gene, E. coli kanamycin selection, DiMSum; sequences stand for … in CUCUCU…GGAGGGAAAAGUUAUCAGGCAUGCACCUGGUAGCUAGUCUUUAAACCAAUAGAUUGCAUCGGUUUAAAAGGCAAGACCGUCAAAUUGCGGGAAAGGGGUCAACAGCCGUUCAGUACCAAGUCUCAGGGGAAACUUUGAGAUGGCCUUGCAAAGGGUAUGGUAAUAAGCUGACGGACAUGGUCCUAACCACGCAGCCAAGUCCUAAGUCAACAGAUCUUCUGUUGAUAUGGAUGCAGUUCACAGACUAAAUGUCGGUCGGGGAAGAUGUAUUCUUCUCAUAAGAUAUAGUCGGACCUCUCCUUAAUGGGAGCUAGCGGAUGAAGUGAUGCAACACUGGAGCCGCUGGGAACUAAUUUGUAUGCGAAAGUAUAUUGAUUAGUUUUGGAGUACUCGUGGUCG
Outline: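 A randomised library covering all eight P1ex-region intron nucleotides was built with the intron in the knt kanamycin-resistance gene on pET-22b(+) and held in E. coli BL21(DE3). Cells were grown overnight at 37°C or 30°C on LB agar, with or without 25 μg/mL kanamycin, plus 100 μg/mL carbenicillin, 50 μM IPTG and 0.2% rhamnose, and pooled colonies were amplicon-sequenced on an Illumina HiSeq 2500. DiMSum fitness is the error-weighted combination of wild-type-normalised replicate fold changes, kanamycin versus none.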

Sequence | self-splicing fitness (ln) (30 °C) | self-splicing fitness (ln) (37 °C)
CAGAAGCAAUAUUACGGCGG | -0.0667 ± 0.084 | -0.292 ± 0.12
CUUCAGCAAUAUUACGCAGA | -3.44 ± 0.37 | -2.18 ± 0.22
UGCAAGCAAUAUUACGAAUU | -2.91 ± 0.14 | -3.01 ± 0.23
GUCGAGCAAUAUUACGUUCU | -1.32 ± 0.15 | 0.217 ± 0.13
GGGUAGCAAUAUUACGAAUU | -1.04 ± 0.084 | -0.438 ± 0.11
UGACAGCAAUAUUACGAAAA | -2.4 ± 0.35 | -1.29 ± 0.19
AAUCAGCAAUAUUACGUGAG | -0.184 ± 0.047 | 0.612 ± 0.077
CCCUAGCAAUAUUACGUAAA | – | -2.22 ± 0.32
UAAUAGCAAUAUUACGCUCA | -0.0964 ± 0.088 | -0.235 ± 0.096
GGCAAGCAAUAUUACGCCUU | -2.83 ± 0.22 | -0.231 ± 0.16
GACGAGCAAUAUUACGCCUA | -0.714 ± 0.32 | –
GAAUAGCAAUAUUACGAUUC | -2.67 ± 0.14 | -2.24 ± 0.2
GUAGAGCAAUAUUACGCUCU | -3.31 ± 0.43 | –
CUCGAGCAAUAUUACGUUCU | -3.52 ± 0.17 | -2.8 ± 0.18
CAACAGCAAUAUUACGUUAA | -2.36 ± 0.11 | -2.16 ± 0.12
CGCAAGCAAUAUUACGUCCU | -1.2 ± 0.11 | -0.366 ± 0.12
UGGAAGCAAUAUUACGCUAA | -1.31 ± 0.32 | -0.826 ± 0.38
CGUGAGCAAUAUUACGAUUU | – | -2.24 ± 0.29
AUUUAGCAAUAUUACGACUC | -0.866 ± 0.14 | 0.207 ± 0.16
GGGGAGCAAUAUUACGUAUC | -2.03 ± 0.2 | -2.19 ± 0.37
AAUCAGCAAUAUUACGGGGC | -3.92 ± 0.33 | -2.58 ± 0.29
UUGUAGCAAUAUUACGCCGC | – | -2.68 ± 0.4
UCCCAGCAAUAUUACGUAGC | -2.68 ± 0.12 | -2.19 ± 0.16
AGUGAGCAAUAUUACGCUUA | – | -1.98 ± 0.38
ACCGAGCAAUAUUACGAAUA | -3.02 ± 0.32 | -2.41 ± 0.2
CCGCAGCAAUAUUACGGCGU | -2.44 ± 0.081 | -1.27 ± 0.096

Sequence | self-splicing fitness (ln) (30 °C) | self-splicing fitness (ln) (37 °C)
AGGGAGCAAUAUUACGCAUU | -3.7 ± 0.37 | –
GUAUAGCAAUAUUACGAGUG | -2.23 ± 0.15 | -2.47 ± 0.22
UGGUAGCAAUAUUACGACUG | -0.361 ± 0.25 | -0.806 ± 0.3
UACGAGCAAUAUUACGAAGC | -2.71 ± 0.35 | -0.927 ± 0.34
UUCCAGCAAUAUUACGUAUG | -3.02 ± 0.13 | -1.38 ± 0.14
GCUUAGCAAUAUUACGGUAU | -1.74 ± 0.074 | -1.15 ± 0.091
AUGCAGCAAUAUUACGCAAU | -2.65 ± 0.12 | -1.98 ± 0.13
UACAAGCAAUAUUACGGCCA | -0.557 ± 0.14 | 0.111 ± 0.16
GGGCAGCAAUAUUACGGGCU | -3.06 ± 0.14 | -2.04 ± 0.18
GGCGAGCAAUAUUACGCCUG | -1.97 ± 0.43 | –
UAGGAGCAAUAUUACGGUUG | -3.11 ± 0.36 | -2.4 ± 0.24
GGGUAGCAAUAUUACGAAGA | -1.72 ± 0.21 | -1.62 ± 0.21
AACUAGCAAUAUUACGGUAG | -2.06 ± 0.11 | 0.0456 ± 0.12
UGCCAGCAAUAUUACGCUGA | -3.01 ± 0.19 | -2.21 ± 0.21
AGUGAGCAAUAUUACGGCAU | -1.36 ± 0.12 | -0.254 ± 0.13
GUGCAGCAAUAUUACGACGU | -0.779 ± 0.11 | 0.0794 ± 0.13
UCGUAGCAAUAUUACGACGU | -3.04 ± 0.28 | -1.58 ± 0.17
AUUCAGCAAUAUUACGGAAC | -2.54 ± 0.15 | -1.01 ± 0.17
CCCUAGCAAUAUUACGGUAC | -4.33 ± 0.34 | -3.04 ± 0.32
AUCUAGCAAUAUUACGGUCA | -1.31 ± 0.15 | -0.841 ± 0.14
CGAUAGCAAUAUUACGGAAG | -1.53 ± 0.083 | -0.509 ± 0.11
CUGUAGCAAUAUUACGAGGC | -3.31 ± 0.37 | -3.04 ± 0.32
AUUAAGCAAUAUUACGAUUU | -0.227 ± 0.091 | 1.04 ± 0.12
UGCAAGCAAUAUUACGACAC | -2.23 ± 0.24 | -1.35 ± 0.21
ACUAAGCAAUAUUACGAGGU | -3 ± 0.14 | -3.37 ± 0.25
GCGUAGCAAUAUUACGCAAA | -2.37 ± 0.33 | -3.44 ± 0.42

Sequence | self-splicing fitness (ln) (30 °C) | self-splicing fitness (ln) (37 °C)
UGGUAGCAAUAUUACGUCAU | -2.49 ± 0.23 | -2.57 ± 0.36
UUUGAGCAAUAUUACGAUUA | -2.13 ± 0.41 | -2.41 ± 0.36
UUAUAGCAAUAUUACGCAAC | -1.99 ± 0.34 | -1.6 ± 0.2
UUUCAGCAAUAUUACGCGAC | -2.9 ± 0.37 | –
AGUGAGCAAUAUUACGUUAC | -3.72 ± 0.47 | –
CCGUAGCAAUAUUACGCACA | -3.79 ± 0.31 | -1.44 ± 0.36
AACAAGCAAUAUUACGGUUU | -2.73 ± 0.1 | -1.08 ± 0.086
UCGGAGCAAUAUUACGACGA | -1.41 ± 0.14 | -1.32 ± 0.16
AGUCAGCAAUAUUACGCUUU | -0.879 ± 0.063 | 0.0148 ± 0.087
GGUCAGCAAUAUUACGAAAG | -1.78 ± 0.084 | -1.22 ± 0.12
GCGUAGCAAUAUUACGAUCC | -2.41 ± 0.13 | -0.852 ± 0.15
AUGCAGCAAUAUUACGAUGG | -3.04 ± 0.21 | -2.94 ± 0.27
UCCGAGCAAUAUUACGUCUG | -3.5 ± 0.24 | –
GCAAAGCAAUAUUACGCCUU | -2.55 ± 0.23 | -1.04 ± 0.21
ACCGAGCAAUAUUACGUGCU | -3.32 ± 0.25 | -2.49 ± 0.27
UUGCAGCAAUAUUACGGGCU | -1.6 ± 0.16 | -1.17 ± 0.22
UAAUAGCAAUAUUACGCAUU | -2.83 ± 0.21 | -2.15 ± 0.28
GGUCAGCAAUAUUACGCUAU | -1.32 ± 0.092 | -1.03 ± 0.096
UCACAGCAAUAUUACGCGAG | -1.32 ± 0.063 | -0.0838 ± 0.077
CACUAGCAAUAUUACGCGGG | -2.48 ± 0.13 | -2.01 ± 0.15
GUACAGCAAUAUUACGUGAG | -1.42 ± 0.074 | -0.954 ± 0.093
CAAGAGCAAUAUUACGGUGU | -3.52 ± 0.15 | -2.08 ± 0.17
ACAUAGCAAUAUUACGGAUU | -3.42 ± 0.13 | -1.68 ± 0.12
GAGAAGCAAUAUUACGAUCA | -1.06 ± 0.15 | -0.469 ± 0.16
AUCUAGCAAUAUUACGCCUG | -0.828 ± 0.16 | -1.39 ± 0.23
GUUCAGCAAUAUUACGAGCU | -3.34 ± 0.32 | -3.72 ± 0.39
